Assays:
[1] = molecular target: Recombinant gp120 protein from HIV-1 strain IIIB (HIV-1 strain IIIB) (UniProt P04578)
[2] = molecular target: Recombinant gp120 protein from HIV-1 strain IIIB (HIV-1 strain IIIB) (UniProt P04578); assay: SPR; gp120 (115 RUs) and gp41 (45 RUs) amine-coupled on a CM4 chip; lectins as analytes (two-fold dilutions, 0-20 nM HHA, 0-4000 nM Ld WCFS1, 0-1000 nM Ld CMPG5300); 1:1 binding model, apparent KD; 25 °C, Biacore T200, HBS-P pH 7.4 (10 mM HEPES, 150 mM NaCl, 0.05% P20) with 10 mM CaCl2
[3] = molecular target: Recombinant gp41 protein from HIV-1 (HXB2 strain) (HIV-1 (HXB2 strain)) (UniProt P04578); assay: as above

| Substance | inhibition of HIV-1 infection in human CD4+ T-lymphocytic C8166 cell and Raji DCSIGN cultures (data not shown) [1] [µg/mL] | Kd [2] [nM] | koff [2] [s⁻¹] | kon [2] [M⁻¹ s⁻¹] | Kd [3] [nM] | koff [3] [s⁻¹] | kon [3] [M⁻¹ s⁻¹] |
| --- | --- | --- | --- | --- | --- | --- | --- |
| Lectin domain of Msl (Cmpg5300.05_29) of Lactobacillus plantarum CMPG5300 (domain or fragment) | > 200 | 1850 | 0.0564 | 30500 | 1620 | 0.0288 | 22900 |
| Hippeastrum hybrid (amaryllis) lectin (HHA) (natural protein) |  | 1.32 | 0.00219 | 1.66e+06 | 0.836 | 0.00229 | 2.75e+06 |
| Lectin domain of Msa (Lp_1229) of Lactobacillus plantarum WCFS1 (from UniProt F9UN23 1-1010) (domain or fragment) |  | 6260 | 0.0164 | 2620 | 3300 | 0.0236 | 7150 |
